Results reported in publication PMC4227788, “Architecture and ssDNA interaction of the Timeless-Tipin-RPA complex” (Nucleic Acids Research, 2014).

How the values were obtained:
Tim-Tipin complex [1] = target: T1, Tim-Tipin complex (mouse, UniProt Q9R1X4;Q91WA1 1-1134;1-278); assay: SEC; excess DNA; partial binding, 260/280 = 0.98 ± 0.14; 20 mM Hepes pH 7.5, 125 mM NaCl, 2 mM DTT, 0.01 mM zinc acetate (Buffer A); EMSA 15 min RT + 15 min 4 C; FA 15 min 30 C, 10 nM DNA; conditions: protein: recombinant; tags: His (Tim) and His-GST (Tipin), cleaved with 3C; copies: 1;1
T1 sequence 1: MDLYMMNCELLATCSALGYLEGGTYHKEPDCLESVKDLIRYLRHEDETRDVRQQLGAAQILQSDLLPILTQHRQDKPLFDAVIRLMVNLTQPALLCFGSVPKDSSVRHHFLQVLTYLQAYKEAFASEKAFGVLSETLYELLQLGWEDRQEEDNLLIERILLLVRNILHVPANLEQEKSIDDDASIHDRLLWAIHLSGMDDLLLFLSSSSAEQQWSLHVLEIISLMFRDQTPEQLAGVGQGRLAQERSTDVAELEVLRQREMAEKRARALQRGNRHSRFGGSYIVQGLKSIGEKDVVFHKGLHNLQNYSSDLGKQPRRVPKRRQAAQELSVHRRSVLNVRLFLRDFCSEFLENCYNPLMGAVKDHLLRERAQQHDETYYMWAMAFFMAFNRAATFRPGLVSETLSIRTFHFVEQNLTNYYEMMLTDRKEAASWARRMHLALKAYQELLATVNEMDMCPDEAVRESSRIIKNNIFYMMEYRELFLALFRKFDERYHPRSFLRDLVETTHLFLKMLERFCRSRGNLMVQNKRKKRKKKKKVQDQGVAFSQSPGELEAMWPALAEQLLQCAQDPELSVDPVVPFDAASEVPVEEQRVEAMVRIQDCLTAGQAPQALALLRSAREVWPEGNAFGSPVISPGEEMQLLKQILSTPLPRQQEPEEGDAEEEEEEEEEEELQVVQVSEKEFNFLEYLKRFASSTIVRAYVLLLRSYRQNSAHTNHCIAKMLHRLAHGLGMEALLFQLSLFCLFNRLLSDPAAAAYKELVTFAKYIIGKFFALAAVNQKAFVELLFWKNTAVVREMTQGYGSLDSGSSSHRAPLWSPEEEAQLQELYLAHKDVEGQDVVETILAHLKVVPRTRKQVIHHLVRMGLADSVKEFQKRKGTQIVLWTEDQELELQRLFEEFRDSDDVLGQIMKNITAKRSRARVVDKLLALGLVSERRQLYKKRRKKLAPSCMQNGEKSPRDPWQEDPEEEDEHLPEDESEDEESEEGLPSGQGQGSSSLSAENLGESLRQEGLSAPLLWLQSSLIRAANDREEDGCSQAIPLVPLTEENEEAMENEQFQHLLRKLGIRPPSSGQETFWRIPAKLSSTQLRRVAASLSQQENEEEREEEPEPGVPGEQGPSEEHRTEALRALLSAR
T1 sequence 2: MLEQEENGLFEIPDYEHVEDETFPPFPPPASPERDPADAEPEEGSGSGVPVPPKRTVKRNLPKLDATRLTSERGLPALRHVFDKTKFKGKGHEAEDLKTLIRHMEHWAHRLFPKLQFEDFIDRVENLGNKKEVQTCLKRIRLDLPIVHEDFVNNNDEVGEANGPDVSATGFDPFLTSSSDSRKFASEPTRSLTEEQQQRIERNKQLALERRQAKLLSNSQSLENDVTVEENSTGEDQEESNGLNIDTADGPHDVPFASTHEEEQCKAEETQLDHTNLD

[2] = target: T2, RPA70/32/14 (RPA70ABC/32D-WH/14) (mouse, UniProt Q8VEE4;Q99KL9;Q9CQ71 190-623;43-270;1-121); assay: SEC; excess DNA 260/280 = 1.57 ± 0.05; substoichiometric 1.32 ± 0.03; 20 mM Hepes pH 7.5, 125 mM NaCl, 2 mM DTT, 0.01 mM zinc acetate (Buffer A); EMSA 15 min RT + 15 min 4 C; FA 15 min 30 C, 10 nM DNA; conditions: protein: recombinant; tags: His; copies: 1;1;1
[3] = target: T3, Tim-Tipin complex;RPA70/32/14 (RPA70ABC/32D-WH/14) (mouse;mouse, UniProt Q9R1X4;Q91WA1;Q8VEE4;Q99KL9;Q9CQ71 1-1134;1-278;190-623;43-270;1-121, |); assay: SEC; excess DNA; intact complex, 260/280 = 1.20 ± 0.04; 20 mM Hepes pH 7.5, 125 mM NaCl, 2 mM DTT, 0.01 mM zinc acetate (Buffer A); EMSA 15 min RT + 15 min 4 C; FA 15 min 30 C, 10 nM DNA; conditions: protein: recombinant;recombinant; tags: His (Tim) and His-GST (Tipin), cleaved with 3C;His; copies: 1;1;1;1;1
Tim-Tipin complex [4] = target: T1, Tim-Tipin complex; assay: EMSA; 16 uM protein, 4-64 uM DNA; 20 mM Hepes pH 7.5, 125 mM NaCl, 2 mM DTT, 0.01 mM zinc acetate (Buffer A); EMSA 15 min RT + 15 min 4 C; FA 15 min 30 C, 10 nM DNA; conditions: protein: recombinant; tags: His (Tim) and His-GST (Tipin), cleaved with 3C; copies: 1;1; label: 5'-FAM
[5] = target: T2, RPA70/32/14 (RPA70ABC/32D-WH/14); assay: EMSA; 1 RPA per DNA; 20 mM Hepes pH 7.5, 125 mM NaCl, 2 mM DTT, 0.01 mM zinc acetate (Buffer A); EMSA 15 min RT + 15 min 4 C; FA 15 min 30 C, 10 nM DNA; conditions: protein: recombinant; tags: His; copies: 1;1;1; label: 5'-FAM
[6] = target: T2, RPA70/32/14 (RPA70ABC/32D-WH/14); assay: EMSA; 1 RPA with excess DNA, up to 4 RPA at substoichiometric DNA; 20 mM Hepes pH 7.5, 125 mM NaCl, 2 mM DTT, 0.01 mM zinc acetate (Buffer A); EMSA 15 min RT + 15 min 4 C; FA 15 min 30 C, 10 nM DNA; conditions: protein: recombinant; tags: His; copies: 1;1;1; label: 5'-FAM
[7] = target: T3, Tim-Tipin complex;RPA70/32/14 …; assay: EMSA; excess DNA; partial dissociation; 20 mM Hepes pH 7.5, 125 mM NaCl, 2 mM DTT, 0.01 mM zinc acetate (Buffer A); EMSA 15 min RT + 15 min 4 C; FA 15 min 30 C, 10 nM DNA; conditions: protein: recombinant;recombinant; tags: His (Tim) and His-GST (Tipin), cleaved with 3C;His; copies: 1;1;1;1;1; label: 5'-FAM
Tim-Tipin complex [8] = target: T1, Tim-Tipin complex; assay: fluorescence anisotropy; Hill n = 2.2 ± 0.1; 30 C; 20 mM Hepes pH 7.5, 125 mM NaCl, 2 mM DTT, 0.01 mM zinc acetate (Buffer A); EMSA 15 min RT + 15 min 4 C; FA 15 min 30 C, 10 nM DNA; conditions: protein: recombinant; tags: His (Tim) and His-GST (Tipin), cleaved with 3C; copies: 1;1; label: 5'-FAM
[9] = target: T2, RPA70/32/14 (RPA70ABC/32D-WH/14); assay: SEC; DNA-bound RPA released from Tim-Tipin-RPA mixture, 260/280 = 1.27 ± 0.05 and 1.22 ± 0.04; 20 mM Hepes pH 7.5, 125 mM NaCl, 2 mM DTT, 0.01 mM zinc acetate (Buffer A); EMSA 15 min RT + 15 min 4 C; FA 15 min 30 C, 10 nM DNA; conditions: protein: recombinant; tags: His; copies: 1;1;1
Tim-Tipin complex [10] = target: T1, Tim-Tipin complex; assay: SEC; 260/280 = 0.54, excess or substoichiometric DNA; 20 mM Hepes pH 7.5, 125 mM NaCl, 2 mM DTT, 0.01 mM zinc acetate (Buffer A); EMSA 15 min RT + 15 min 4 C; FA 15 min 30 C, 10 nM DNA; conditions: protein: recombinant; tags: His (Tim) and His-GST (Tipin), cleaved with 3C; copies: 1;1
[11] = target: T4, Tim interacting protein (Tipin, residues 1-278) (mouse, UniProt Q91WA1 1-278); assay: SEC; Tim and Tipin co-expressed in E. coli and co-purified (Ni-NTA, Q-sepharose, SEC on Superdex 200 16/60; 20 mM Hepes pH 7.0, 125 mM NaCl, 2 mM DTT); single peak; conditions: partners not purified
T4 construct: The Tipin chain of m1, written alone for the pair Tim with Tipin; also called His-GST-Tipin; source: E. coli BL21 (DE3) gold with pRARE, co-expressed with Tim, co-purified
T4 sequence (looked up): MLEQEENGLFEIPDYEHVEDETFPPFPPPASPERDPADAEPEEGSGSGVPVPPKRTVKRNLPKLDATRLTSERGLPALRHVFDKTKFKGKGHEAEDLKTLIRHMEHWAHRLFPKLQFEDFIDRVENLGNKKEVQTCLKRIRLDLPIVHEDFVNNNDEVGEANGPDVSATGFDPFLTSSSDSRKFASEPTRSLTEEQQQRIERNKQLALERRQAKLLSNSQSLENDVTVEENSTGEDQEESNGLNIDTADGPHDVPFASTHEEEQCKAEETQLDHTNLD

[12] = target: T3, Tim-Tipin complex;RPA70/32/14 …; assay: SEC; excess DNA; intact complex, 260/280 = 1.11 ± 0.04; 20 mM Hepes pH 7.5, 125 mM NaCl, 2 mM DTT, 0.01 mM zinc acetate (Buffer A); EMSA 15 min RT + 15 min 4 C; FA 15 min 30 C, 10 nM DNA; conditions: protein: recombinant;recombinant; tags: His (Tim) and His-GST (Tipin), cleaved with 3C;His; copies: 1;1;1;1;1
[13] = target: T2, RPA70/32/14 (RPA70ABC/32D-WH/14); assay: SEC; excess DNA 260/280 = 1.46 ± 0.01; substoichiometric 1.28 ± 0.05; 20 mM Hepes pH 7.5, 125 mM NaCl, 2 mM DTT, 0.01 mM zinc acetate (Buffer A); EMSA 15 min RT + 15 min 4 C; FA 15 min 30 C, 10 nM DNA; conditions: protein: recombinant; tags: His; copies: 1;1;1

T2 sequence (Q8VEE4 190-623, chain 1 of 3): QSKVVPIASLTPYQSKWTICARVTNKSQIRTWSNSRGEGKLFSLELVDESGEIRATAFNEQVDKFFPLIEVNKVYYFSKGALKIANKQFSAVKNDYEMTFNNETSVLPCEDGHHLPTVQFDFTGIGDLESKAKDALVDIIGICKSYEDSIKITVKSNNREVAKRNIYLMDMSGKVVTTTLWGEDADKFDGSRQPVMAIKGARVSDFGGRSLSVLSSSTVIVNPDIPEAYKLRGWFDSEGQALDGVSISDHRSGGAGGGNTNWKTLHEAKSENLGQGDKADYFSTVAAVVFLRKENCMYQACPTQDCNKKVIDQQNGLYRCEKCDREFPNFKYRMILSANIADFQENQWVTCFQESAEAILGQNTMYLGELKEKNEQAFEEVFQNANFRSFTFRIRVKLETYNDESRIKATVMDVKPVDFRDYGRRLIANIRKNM
T2 sequence (chain, as listed by the source, chain 2 of 3): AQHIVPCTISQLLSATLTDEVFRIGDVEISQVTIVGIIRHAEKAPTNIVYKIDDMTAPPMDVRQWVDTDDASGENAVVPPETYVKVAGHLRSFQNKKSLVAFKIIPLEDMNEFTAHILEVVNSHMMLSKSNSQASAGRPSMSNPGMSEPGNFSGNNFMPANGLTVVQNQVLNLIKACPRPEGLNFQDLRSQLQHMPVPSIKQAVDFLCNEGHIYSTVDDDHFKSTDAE
T2 sequence (Q9CQ71 whole entry, chain 3 of 3): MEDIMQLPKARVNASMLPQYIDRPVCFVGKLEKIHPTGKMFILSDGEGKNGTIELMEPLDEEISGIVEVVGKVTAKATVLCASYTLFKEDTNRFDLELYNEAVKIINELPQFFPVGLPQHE
T3 sequence (Q8VEE4 190-623, chain 3 of 3): as the sequence (Q8VEE4 190-623, chain 1 of 3) above
T3 sequence (chain, as listed by the source |, chain 4 of 3): as the sequence (chain, as listed by the source, chain 2 of 3) above
T3 sequence (Q9CQ71 whole entry, chain 5 of 3): as the sequence (Q9CQ71 whole entry, chain 3 of 3) above

B1: 60 nt ssDNA (SEC) (ssDNA)
DNA: CAGACCGCCACCGACTGCTTAGATATTTAAGTTTTCTAATTTTTCATTGAAAGCATTAAG
binding result (Tim-Tipin complex [1]): binds
binding result [2]: binds
binding result [3]: binds

B2: 14 nt FAM ssDNA (ssDNA)
DNA: GACGGCATCCCTAA
binding result (Tim-Tipin complex [4]): no binding
binding result [5]: binds

B3: 60 nt FAM ssDNA (ssDNA)
DNA: ACGCTGCCGAATTCTACCAGTGCCTTGCTAGGACATCTTTGCCCACCTGCAGGTTCACCC
binding result [6]: binds
binding result [7]: binds
Kd (Tim-Tipin complex [8]): 290 ± 10 nM

B4: 14 nt ssDNA (SEC) (ssDNA)
DNA: AGAAGAGCCAAAAC
binding result [9]: binds
binding result (Tim-Tipin complex [10]): no binding

B5: Timeless (Tim, residues 1-1134) (domain or fragment, mouse, UniProt Q9R1X4 1-1134, looked up)
chain: MDLYMMNCELLATCSALGYLEGGTYHKEPDCLESVKDLIRYLRHEDETRDVRQQLGAAQILQSDLLPILTQHRQDKPLFDAVIRLMVNLTQPALLCFGSVPKDSSVRHHFLQVLTYLQAYKEAFASEKAFGVLSETLYELLQLGWEDRQEEDNLLIERILLLVRNILHVPANLEQEKSIDDDASIHDRLLWAIHLSGMDDLLLFLSSSSAEQQWSLHVLEIISLMFRDQTPEQLAGVGQGRLAQERSTDVAELEVLRQREMAEKRARALQRGNRHSRFGGSYIVQGLKSIGEKDVVFHKGLHNLQNYSSDLGKQPRRVPKRRQAAQELSVHRRSVLNVRLFLRDFCSEFLENCYNPLMGAVKDHLLRERAQQHDETYYMWAMAFFMAFNRAATFRPGLVSETLSIRTFHFVEQNLTNYYEMMLTDRKEAASWARRMHLALKAYQELLATVNEMDMCPDEAVRESSRIIKNNIFYMMEYRELFLALFRKFDERYHPRSFLRDLVETTHLFLKMLERFCRSRGNLMVQNKRKKRKKKKKVQDQGVAFSQSPGELEAMWPALAEQLLQCAQDPELSVDPVVPFDAASEVPVEEQRVEAMVRIQDCLTAGQAPQALALLRSAREVWPEGNAFGSPVISPGEEMQLLKQILSTPLPRQQEPEEGDAEEEEEEEEEEELQVVQVSEKEFNFLEYLKRFASSTIVRAYVLLLRSYRQNSAHTNHCIAKMLHRLAHGLGMEALLFQLSLFCLFNRLLSDPAAAAYKELVTFAKYIIGKFFALAAVNQKAFVELLFWKNTAVVREMTQGYGSLDSGSSSHRAPLWSPEEEAQLQELYLAHKDVEGQDVVETILAHLKVVPRTRKQVIHHLVRMGLADSVKEFQKRKGTQIVLWTEDQELELQRLFEEFRDSDDVLGQIMKNITAKRSRARVVDKLLALGLVSERRQLYKKRRKKLAPSCMQNGEKSPRDPWQEDPEEEDEHLPEDESEDEESEEGLPSGQGQGSSSLSAENLGESLRQEGLSAPLLWLQSSLIRAANDREEDGCSQAIPLVPLTEENEEAMENEQFQHLLRKLGIRPPSSGQETFWRIPAKLSSTQLRRVAASLSQQENEEEREEEPEPGVPGEQGPSEEHRTEALRALLSAR
notes: Timeless (Tim), mouse, AB019001, aa 1-1134; The Tim chain of m1, written alone for the pair Tim with Tipin; also called mTim; His-Tim; source: E. coli BL21 (DE3) gold with pRARE, co-expressed with Tipin, co-purified
stoichiometry N [11]: 1

B6: 31 nt ssDNA (SEC) (ssDNA)
DNA: CGGGATCCCAGCCAGCGATGTCTCAAGCTGC
binding result [12]: binds
binding result [13]: binds
